This note sets out measurements from article PMC7688135, “Two cis-regulatory SNPs upstream of ABCG2 synergistically cause the blue eggshell phenotype in the duck”.

The target of data set [1] is T1, CTCF (Homo sapiens, UniProt P49711 1-727).
T1 sequence: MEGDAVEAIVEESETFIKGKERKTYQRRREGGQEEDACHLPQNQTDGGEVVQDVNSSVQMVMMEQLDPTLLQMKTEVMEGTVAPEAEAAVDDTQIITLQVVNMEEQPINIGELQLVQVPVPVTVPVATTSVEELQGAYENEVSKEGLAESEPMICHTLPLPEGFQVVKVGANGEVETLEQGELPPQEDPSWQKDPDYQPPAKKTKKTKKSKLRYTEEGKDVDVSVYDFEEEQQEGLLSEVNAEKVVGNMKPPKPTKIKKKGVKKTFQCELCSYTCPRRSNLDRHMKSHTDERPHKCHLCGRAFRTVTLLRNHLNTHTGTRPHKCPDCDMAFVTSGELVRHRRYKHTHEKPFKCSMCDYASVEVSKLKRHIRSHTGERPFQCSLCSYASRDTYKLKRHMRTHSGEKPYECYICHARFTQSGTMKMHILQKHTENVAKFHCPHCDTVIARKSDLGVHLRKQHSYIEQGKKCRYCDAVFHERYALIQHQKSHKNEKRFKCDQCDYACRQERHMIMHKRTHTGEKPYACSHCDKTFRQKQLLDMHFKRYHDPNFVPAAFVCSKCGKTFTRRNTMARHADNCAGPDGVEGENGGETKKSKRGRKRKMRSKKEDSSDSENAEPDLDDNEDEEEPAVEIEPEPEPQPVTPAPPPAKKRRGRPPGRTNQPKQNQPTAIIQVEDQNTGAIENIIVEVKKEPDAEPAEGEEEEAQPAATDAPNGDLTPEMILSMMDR
Kind of data set: EMSA supershift; anti-CTCF antibody; Buffer, salt, pH and temperature not given; 40 pmol biotin probe, 200-fold cold competitor, 5% non-denaturing PAGE, LightShift Chemiluminescent EMSA kit. Conditions: protein: recombinant; label: 5'-biotin on strand 1; blunt.

Data set [2] addresses T1, CTCF. Kind of data set: EMSA supershift; anti-CTCF antibody; supershift evident; Buffer, salt, pH and temperature not given; 40 pmol biotin probe, 200-fold cold competitor, 5% non-denaturing PAGE, LightShift Chemiluminescent EMSA kit. The note with it: protein: recombinant; label: 5'-biotin on strand 1; blunt.

B1: White-M5 (G allele) (dsDNA)
DNA 1: ACTTCTGCCACTGGAGGCAGGAGGG
DNA 2: CCCTCCTGCCTCCAGTGGCAGAAGT
Take B1: the binding result in data set [1] is given as “no binding”.

B2: Blue-M5 (A allele) (dsDNA)
DNA 1: ACTTCTGCCACTAGAGGCAGGAGGG
DNA 2: CCCTCCTGCCTCTAGTGGCAGAAGT
On to B2, for which the binding result in data set [2] is listed as “binds”.
